Consider one protein from doi:10.1101/2021.11.29.470334 (bioRxiv, 2021).

The data set deals with the molecule itself. Description: cryo-EM structure.

B1: Kir6.2 from Mus musculus (mmKir6.2) H175K mutant, as the Kir6.2 subunit of H175K_(cryoEM) (natural protein)
chain: LSRKGIIPEEYVLTRLAEDPAEPRYRTRERRARFVSKKGNCNVAHKNIREQGRFLQDVFTTLVDLKWPHTLLIFTMSFLCSWLLFAMVWWLIAFAHGDLAPGEGTNVPCVTSIHSFSSAFLFSIEVQVTIGFGGRMVTEECPLAILILIVQNIVGLMINAIMLGCIFMKTAQAKRRAETLIFSKHAVITLRHGRLCFMLRVGDLRKSMIISATIHMQVVRKTTSPEGEVVPLHQVDIPMENGVGGNGIFLVAPLIIYHVIDSNSPLYDLAPSDLHHHQDLEIIVILEGVVETTGITTQARTSYLADEILWGQRFVPIVAEEDGRYSVDYSKFGNTIKVPTPLCTARQLDEDRSLLDALTLASSRGPLRKRSVAVAKAKPKFSISPDSLS
Regarding B1, the binding result is “binds”.
